Measurements published in the supplement of paper PMC9170038.

Test system: MS2 coat protein
Assay: apparent KD of MS2 coat protein; designed switch direction (-1 OFF switch, 1 ON switch): -1; higher = weaker reporter binding
Summary of the method: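 Designed RNA switches were transcribed on Illumina chips by stalled E. coli RNA polymerase and titrated with SNAP-549-labelled MS2 coat protein from 0.7 or 1.5 nM, doubling to 3 µM. Step length ran from 0.8–1.5 h at the lowest concentration to 10–20 min at the highest. The apparent KD is the median over clusters for each design, from curve-fitted normalised cluster fluorescence.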

[1] = Eterna round: R95, input ligand: FMN 200 uM
[2] = Eterna round: R95, input ligand: microRNA oligo, concentration not stated
[3] = Eterna round: R95, input ligand: none
[4] = input ligand: microRNA oligo, concentration not stated

Sequence	apparent KD of MS2 coat protein [1]	apparent KD of MS2 coat protein [2]	apparent KD of MS2 coat protein [3]	apparent KD of MS2 coat protein (input ligand: FMN 200 uM)	apparent KD of MS2 coat protein (input ligand: none)	apparent KD of MS2 coat protein [4]
GGUUGGCGAGGAUAUACAUGAGGAUCACCCAUGUGAGAGAAUAAGUGAGGAAAGAAAAGUAGAAGGCGCUGACG [Mat - Exclusion 3 - Mod of Salish D52] (puzzle: Exclusion 3)	117 nM	44.5 nM	55.1 nM	–	–	–
GGUUGGCGAGGAUAUACAUGAGGAUCACCCAUGUGAGGGAAAAAAGUGAGAACGAAAAGUAGAAGGCGCUGACG [salish99_ex3_r3_063] (puzzle: Exclusion 3)	10.5 nM	54 nM	80.5 nM	–	–	–
GGUUGGCGAGGAUAUACAUGAGGAUCACCCAUGUGUGAGAAAAAAGUGAGGAAGAAAAGUAGAAGGCGCUGACG [salish99_ex3_r3_007] (puzzle: Exclusion 3)	30.2 nM	70.7 nM	62.1 nM	–	–	–
GGUUGUCGAGGAUAUACUAGGGACCGAUCGAUCGGAACUUCACAUGAGGAUCACCCAUGUAGAAGGCGACAAUC [Eternabot (L1) Solution 57] (Eterna round: R97, puzzle: Exclusion 2)	–	–	–	116 nM	174 nM	–
GGUUUUUCUGAGGAUAUUGCAUCACCCGAUUUAUAAGAAGGCAGAACAUGAGGAUCACCCAUGUGGGUCUCUAG [Bingo-Bango-27] (Eterna round: R97, puzzle: Exclusion 6)	–	–	–	24.4 nM	15.7 nM	–
GUAAACGUAUAGGAUAUUUCAGGUCAAAGCUGCAAAGAAGGAUGCACAUGAGGAUCACCCAUGUGGUCAAUAAA [Mod of Quesina 24 - Jieux - Exclusion 6] (Eterna round: R97, puzzle: Exclusion 6)	–	–	–	25.7 nM	22.2 nM	–
GUAAUACAUGAGGAUCACCCAUGUAAGGAUAUGCUAGCGGUCGGCUGACUGACUGCUAGCAGAAGGUACAUGAU [Mat - Mod of JL D77] (puzzle: Exclusion 1)	–	87.2 nM	–	–	–	–
GUAAUUAAUGUAGGAUAUGCAAGGCGAACCUAAGCAGAAGGACAUGUGGAUCACCCAUGUAAUGCGGUCUGCGUACAGAUCGCU [salish99_ex1_NG1_002] (Eterna round: R96, puzzle: Exclusion NG 1)	–	–	–	507 nM	60.2 nM	103 nM
GUAAUUAUAUAGGAUAUCGAUUUUAUUAUUUAACGAGAAGGAUGAACAUGAGGAUCACCCAUGUGGUAUCAUGG [JL-ex6-3.05] (puzzle: Exclusion 6)	–	138 nM	–	–	–	–
GUAAUUGAUGUCAGGAUAUCAGGGCCACAAUGCUAUGAGAAGGGACAUGAGGAUCACCCAUGUAAAAGUUCAUG [BmEX4 B.16] (Eterna round: R97, puzzle: Brourd's mod of Exclusion 4)	–	–	–	180 nM	69.8 nM	–
GUACGUAGAGGAUAUGGUUAUGAUGACAUGAGGAUCACCCAUGUUAGAGUGGGUAGAUUUCCAGAAGGCUGUGAAC [Eternabot (L1) Solution 98] (Eterna round: R97, puzzle: Exclusion 5)	–	–	–	1060 nM	1330 nM	–
GUACUGACAGGAUAUACAUGAGGAUCACCCAUGUCCUUAAGCUGACAAAAGUCAGCAAGUAGAAGGGUCUGUAC [Omei Ex3 Model Bachelor's Dilema v1] (Eterna round: R97, puzzle: Exclusion 3)	–	–	–	498 nM	79.4 nM	–
GUACUGAGGCUUUGCUUUAAUCGUACAUGAGGAUCACCCAUGUAGGAUAUGGUAGGCUUUGCUUACCAGAAGGACAGAGUGAUC [JL EXNG3 1.23] (Eterna round: R96, puzzle: Exclusion NG 3)	–	–	–	148 nM	162 nM	121 nM
GUAGAGUAAGGAUAUGCAGAAUAGGAUAGAAUGGUUAGAAUGUAGAAGGUACAUGAGGAUCACCCAUGUAAUGU [Excluse me!!!! 10 - Jieux - Exclusion 4] (puzzle: Exclusion 4)	20.8 nM	22.7 nM	22.7 nM	–	–	–
GUAGAGUAAGGAUAUGCUGAAUAGGAUAGAAUGGUUAGAAAGUAGAAGGUACAUGAGGAUCACCCAUGUAAUGU [Excluse me!!!! 24 - Jieux - Exclusion 4] (puzzle: Exclusion 4)	–	20.3 nM	–	–	–	–
GUAGAGUAAGGAUAUUGAGAAUAGGAUAGAAUGGUUAGAAUCAAGAAGGUACAUGAGGAUCACCCAUGUAAUGU [Excluse me!!!! 6 - Jieux - Exclusion 4] (puzzle: Exclusion 4)	16.8 nM	22.2 nM	19.7 nM	–	–	–
GUAGAGUCAGGAUAUACAGAAGAAGCAUGGAAAACAUGGAUACAUGAGGAUCACCCAUGUAGAAGGGACUCUAC [ChP 11-04-2015 #2] (puzzle: Exclusion 2)	83.6 nM	33.2 nM	41.5 nM	–	–	–

Sequence	apparent KD of MS2 coat protein [1]	apparent KD of MS2 coat protein [2]	apparent KD of MS2 coat protein [3]	apparent KD of MS2 coat protein (input ligand: FMN 200 uM)	apparent KD of MS2 coat protein (input ligand: none)	apparent KD of MS2 coat protein [4]
GUAGAGUCAGGAUAUACGAGAUCGAAAGAUCGGUAGUCCUUACAUGAGGAUCACCCAUGUAGAAGGGACUCUAC [Omei mod 7 to Eli's favorate candidate (ch.parushev)] (Eterna round: R97, puzzle: Exclusion 2)	–	–	–	118 nM	15.8 nM	–
GUAGCUUCGGCUACUACAAGCUUUUUGCUCGUCUUAUUAACAUGAGGAUCACCCAUGUACAAGAGACCUCAUGUAUU [Sensor v3 - turn-off variant 2 - 13] (puzzle: Sensor v3, turn-off variant 2)	90.4 nM	15.6 nM	146 nM	–	–	–
GUAGCUUCGGCUACUACAAGCUUUUUGCUCGUCUUAUUAACAUGAGGAUCACCCAUGUCAAAGAGACCUCAUGUAUU [Sensor v3 - turn-off variant 2 - 5] (puzzle: Sensor v3, turn-off variant 2)	420 nM	28.2 nM	462 nM	–	–	–
GUAUAUAGUGUGAGGAUAUGCUGGUCCUUGGAUCAGCAGAAGGCACAUGAGGAUCACCCAUGUAGUUAAAUAUG [Mat - Exclusion 4 - JL Mod - D21] (puzzle: Brourd's mod of Exclusion 4)	–	26.3 nM	–	–	–	–
GUAUCGUGAGGAUAUCAUGAUUGACUUAGUUUAUGUCAGCGUGAGAAGGCACAUGAGGAUCACCCAUGUGAUUA [Ex4 - 3 - 7] (puzzle: Exclusion 4)	–	23.1 nM	–	–	–	–
GUCACAUGGAUGUAGGAUCACAUGAGGAUCACCCAUGUGACUAACAAGGUUUUUGCUCAUCUUAUGACUAUGUGAAU [A Brourd mod] (Eterna round: R97, puzzle: Sensor, turn-off variant 1)	–	–	–	91.7 nM	103 nM	–
GUCCCACAUGAGGAUCACCCAUGUGAGGAUAUGGUUUCGCUGGCCGUAGCCAGUGGAACCAGAAGGCGCAUGAU [Mat - Exclusion 1 - JL Mod - D2] (Eterna round: R97, puzzle: Exclusion 1)	–	–	–	25.2 nM	20.3 nM	–
GUCCGACAUGAGGAUCACCCAUGUGAGGAUAUGCGAUUAGCUGCUAGGUAGUUAGUAUGUAGAAGGUGCAUGAA [EX1 #75] (Eterna round: R97, puzzle: Exclusion 1)	–	–	–	18.8 nM	17.5 nM	–
GUCCUCGUGGCGCCUAAACACAUGAGGAUCACCCAUGUACAGGCUUUUUGCCGUCUUAUAAUAAAACCGAGGAUACG [Zaveonqu] (puzzle: Sensor v3, turn-off variant 1)	20.3 nM	121 nM	20.9 nM	–	–	–
GUCCUGUGGCAGGAUAUGAAAACGUAGCAACGGUCAGAAGGGCCAACAUGAGGAUCACCCAUGUACCCGUAUGG [Eternabot (L1) Solution 62] (Eterna round: R97, puzzle: Exclusion 6)	–	–	–	24.3 nM	19.9 nM	–
GUCGAACAUGAGGAUCACCCAUGUGAGGAUAUGCGAAUUUCAUCAAAAGAUGAAAUUUGCAGAAGGCACACGAC [Omei Ex1 A15] (Eterna round: R97, puzzle: Exclusion 1)	–	–	–	26.4 nM	23.4 nM	–
GUCGCAAUGCAGGAUAUCCUGCUAUUCAAGGGAGGAGAAGGGCAGACAUGAGGAUCACCCAUGUGGUCCGUGCC [Eternabot (L1) Solution 3] (Eterna round: R97, puzzle: Exclusion 6)	–	–	–	160 nM	170 nM	–
GUCGUGCGGCAGUGCUGUACGAGUACAUGAGGAUCACCCAUGUAGGAUAUGGUUCGUUUUGCGUGCUAGAAGGGCGUGCGUUGA [Excl-NG3-LRO20] (Eterna round: R96, puzzle: Exclusion NG 3)	–	–	–	20 nM	22 nM	14 nM
GUCUAGAGAGGAUAUAUUUACAGUGUACGUCGGAUGAUCGCACUUGAGGAUCACCCAAGUAGAAGGCUCGAGGG [EX2 #31] (Eterna round: R97, puzzle: Exclusion 2)	–	–	–	875 nM	1850 nM	–
GUGAGUAGUCAGGAUAUGCUGUACAAAAGUACAGCAGAAGGGAUUACAUGAGGAUCACCCAUGUGUACUUCAUG [Omei Ex6 B10] (Eterna round: R97, puzzle: Exclusion 6)	–	–	–	940 nM	322 nM	–
GUGAGUGGUCAGGAUAUGCUGUACAAAAGUACAGCAGAAGGGAUUACAUGAGGAUCACCCAUGUUUACUUCAUG [Omei Ex6 B4] (Eterna round: R97, puzzle: Exclusion 6)	–	–	–	125 nM	90.2 nM	–
GUGCACGUAGGAUAUUAGAAGGAGAACAUGAGGAUCACCCAUGUUAUCCAUCACCUCCGCUAAGAAGGAUGGCCAC [EX5 C.6] (Eterna round: R97, puzzle: Exclusion 5)	–	–	–	14.1 nM	13 nM	–
